Measurements published in the nanobody polyreactivity screen of Harvey et al. (2022).

Assay: yeast display, Sf9 membrane polyspecificity reagent, FACS + sequencing; frameworks hold sequencing errors
Procedure, shortened: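 A synthetic nanobody library was expressed on Saccharomyces cerevisiae BJ5465 by galactose induction for 36–48 hours. The library was stained for 1 hour at 4 °C with 10% biotinylated, detergent-solubilized Sf9 membrane reagent and enriched with streptavidin microbeads before FACS. Low and high (top ~1%) gates were set on anti-HA fluorescence for expression and streptavidin fluorescence for reagent binding, and each polyreactivity label reflects the gate of origin.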

Sequence | polyreactivity (PSR sort gate)
QVQLVESGGGLVQAGGSLRLSCAASGSTGWYDRGWYRQAPGKERELVASISSGDSTNYADSVKGRFTISRDNAKNTVYLQMNSLKPEDTAVYYCAADFNVGFVWGDDYDYWGQGTQVTVSS | low polyreactivity
QVQLVESGGGLVQAGGSLRLSCAASGSTIADKAMGWYRQAPGKERELVAAITRSGVRTYYADSVKGRFTISRDNAKNTVYLQMNSLKPEDTAVYYCAKRTYPSRIYDYWGQGTQVTVSS | low polyreactivity
QVQLVESGGGLVQAGGSLRLSCAASGSTIAFYDMGWYRQAPGKEREMVAAISQSDGDTYYADSVKGRFTISRDNAKNTVYLQMNSLKPEDTAVYYCARPSFTSGYQSYDYWGQGTQVTVSS | low polyreactivity
QVQLVESGGGLVQAGGSLRLSCAASGSTIATYTMGWYRQAPGKERELVAAISVSGSRTYYADSVKGRFTISRDNAKNTVYLQMNSLIPEDTAVYYCNADPPVKLYLYDYWGQGTQVTVSS | high polyreactivity
QVQLVESGGGLVQAGGSLRLSCAASGSTIDGYAMAWYRQAPGKERELVAAISRRGGSTYYADSVKGRFTISRDNATNTVYLLMNSLTPEDTAVYYCNRYPPRRYYARYYSWGQGTQVTVSS | high polyreactivity
QVQLVESGGGLVQAGGSLRLSCAASGSTIDTYAMGWYRLAPGKERELVAGISWSGGSTFYADSVKGRFTFSRDNAKNTVDLHMNSLKPEDTAVYYCAKQLWVGVKYDYWGQGTQVTVSS | low polyreactivity
QVQLVESGGGLVQAGGSLRLSCAASGSTIEFNAMGWYRQAPGKERELVAAISGSGASTYYADSVKGRFTISRDNAKNTVYVQMNSLKPEDTAVYYCNADSLYYDYQTVDVQALDYWGQGTQVTVSS | low polyreactivity
QVQLVESGGGLVQAGGSLRLSCAASGSTIFENVMGWYREAPRKEREFVAAINTSGRSTYYADSVKGRFTISRDNAKNTVFLQMNSLKPEDTAVDYCARDSYWEMDYWGQGTQVTVSS | low polyreactivity
QVQLVESGGGLVQAGGSLRLSCAASGSTIFGYALGSYRQAPGKERELVAASSSGGSTYYADSVKGRFTISRDNAKNTVYLQMNSLKPEDTAVYYCAATRRLKRYWAQGTQVTVSS | high polyreactivity
QVQLVESGGGLVQAGGSLRLSCAASGSTIIRNTMGWYRKAPGKERELVAAITRSGGSTFYADSVKGRFTISRDNAKNTVYLQMNSLKPEDTAVYYCAAVRSKLYYYWGQGTQVTVSS | high polyreactivity
QVQLVESGGGLVQAGGSLRLSCAASGSTIKTYATMGWYRQAPGKERELVAAITACTSTNYADSVKGRFTISRDNAKNTVYLQMNSLKPEDTAVYYGAADDYYNWYLGEPGDYWGQGTQVTVSS | low polyreactivity
QVQLVESGGGLVQAGGSLRLSCAASGSTILSNAMGWYRQAPGKERELVADITSGGSTYYADSVKGRFTISLDNAKNTVYLQMNSLKQEDTAVYYCAVRYYLRRYDYWGQGTQVTVSS | low polyreactivity
QVQLVESGGGLVQAGGSLRLSCAASGSTILYNTMGWYRQAPGKERELVATITSRGDRTYYADSVKGRFTISRDNAKNTVYLQMNSLKPEDTAVDYCAADRTDFWPYDYWGQGTQVTVSS | low polyreactivity
QVQLVESGGGLVQAGGSLRLSCAASGSTINRNAMGWYRQAPGKERELVAGISYGGGSTYADSVKGRFTISRDNAKNTVYLQMNSLKPEDTAVYYCTADFRHGHRHDMNYWGQGTQVTVSS | low polyreactivity
QVQLVESGGGLVQAGGSLRLSCAASGSTINWNAMGWYRQAPGKERELVASINRGDSTYYADSVKGRFTISRDNAKNTVYLQMNSLKPEDTAVYYCAARRYYSLRTFLYCFSKYDYWGQGTQVTVSS | high polyreactivity
QVQLVESGGGLVQAGGSLRLSCAASGSTINYNAMGWYRQAPGKERELVAAIDSGVSTNYADSVKGRFTITRDNAKNTVYLQMNSLKPEDTAVYYCNADPDYFDYWGQGTQVTVSS | low polyreactivity
QVQLVESGGGLVQAGGSLRLSCAASGSTIPDYTMGWYRQAPGKEREFVAAISRIGGTYYADSVKGRFSISRDNAKNTVYLQMNSLKPEDTAVYSCNADPQGLSGRYHGFDYWGQGTQVTVSS | low polyreactivity
QVQLVESGGGLVQAGGSLRLSCAASGSTIPLYAMGWYRQAPGKERELVAAISRRGGRTYYADSVKGRFTISRDNAKNTVYLQMNSLKPEDTAVYYCATAVGSRVDYWGQGTQVTVSS | high polyreactivity
QVQLVESGGGLVQAGGSLRLSCAASGSTIPPYAMGWYRQAPGKERELVAAITSGGSTYYAESVKGRFTISRDNAKNTVYLQMNSLKPEDTAVYSCAASWDPWEYDYWGQGTQVTVSS | low polyreactivity
QVQLVESGGGLVQAGGSLRLSCAASGSTIPRNAMGWYRPAPGKERELVAAITSGGSTNYADSVKGRFTLSRDNAKNTVYLQINSLKPEDTAVYYCAADEQVNTQYVVWGDYWGQGTQVTVSS | low polyreactivity
QVQLVESGGGLVQAGGSLRLSCAASGSTIPSNAMGWYRQAPGKERELVASITYSDGTTRYADSVKGRFTISRDNAKNTVYLLMNSLKPEDTAVYYCNAVYYREGMDYWGLGTQVTVSS | low polyreactivity

Sequence | polyreactivity (PSR sort gate)
QVQLVESGGGLVQAGGSLRLSCAASGSTIPSYAMGWYRAAPGKERELVASITYSDGPTRYADSEKGRFTISRDNAKNTVFLQMNSLKPEDTAVYYCNAVYYREGMDYWGQGNQVTVSS | low polyreactivity
QVQLVESGGGLVQAGGSLRLSCAASGSTIPYYAMGWYRPAPGKERELVARIRWNGDSTYYADSVKGRFTISRDNAKNTVYLQMNSLKPEDTAVYYCARQGYTLYRTRYRYDYWGQGTQVTASS | high polyreactivity
QVQLVESGGGLVQAGGSLRLSCAASGSTIRHYAMGWYRQAPGKERELVAAISYSGGSTYYADSVKGRFTISRYNAKNNVYLQMNSLKPEDTAVYYCAARSPSKMGYWGQGTQVTVSS | high polyreactivity
QVQLVESGGGLVQAGGSLRLSCAASGSTIRSNAMGWYRQEPGKERELVAAISRTGGRTYYADSVKGRFTISRDNAKNTVYLQMNSLKPEDTAVYYCARPDKGLEYSENYYWGQGTQVTVSS | high polyreactivity
QVQLVESGGGLVQAGGSLRLSCAASGSTISGYAMGWYRQAPGKEREFVASIRRSGGSTYYADSVKGRFTISRDNAKNTVYLQMNSLKPEDTAVYYCAKRYVVSRGDYWGQGTQVTVSS | high polyreactivity
QVQLVESGGGLVQAGGSLRLSCAASGSTISRNAMGWSRQAPGKERELVAAISWRGGRTYYADSVKGRFTISRDNAKNTVYLQMNSLKPEDTAVYYCAAEHKYRYDYWGQGTQVTVSS | low polyreactivity
QVQLVESGGGLVQAGGSLRLSCAASGSTISSYAMGWYRPAPGKERELVAANTSGGSTYYADSLKGRFTISRDNAKNSVSLQMNSLKPEDTAVYYCDLGSTTMDYWGQGTQVTVSS | low polyreactivity
QVQLVESGGGLVQAGGSLRLSCAASGSTISYYAMGWYRQAPGKERELVAAITWNGGSTYYADSVKGRFTISRDNAKNTVYLQMNSLKPEDTAVYYCAKDSYYYDYDYWGQGTQVTVSS | low polyreactivity
QVQLVESGGGLVQAGGSLRLSCAASGSTIVGYAMGWYRQAPGKERELVAAISGSGTSTYYADSVKGRFTISRDNAKNTVYLQMNSLKPEDSAVYYCNADPIFVYSSYNYWGQGTQVTVSS | low polyreactivity
QVQLVESGGGLVQAGGSLRLSCAASGSTIVRYVMGWYRQAPGKERELVAAISRRGGSTYYADSVKGRFTISRDNAKNTVYLQMNSLKPEDTAVYYCARTVGYRTLLESDSWGQGTQVTVSS | high polyreactivity
QVQLVESGGGLVQAGGSLRLSCAASGSTIVTKAMGWYRQAPGKERELVAAISFSVGRTYYADSVKGRFTISRDNAKNTVYLQMNSLKPEDTAVYYCAAGLRVTPALHSYGYWGQGTQVTVSS | high polyreactivity
QVQLVESGGGLVQAGGSLRLSCAASGSTIWSYAMGWYRQAPGKERELVASITWSGGSTYADSVKGRFTISRDNAKNTVYLQMNSLKPEDTAVYYCARESTLTYYSDDFDYWGQGTQVTVSS | low polyreactivity
QVQLVESGGGLVQAGGSLRLSCAASGSTIYGYTMGWYRQAPGKEREMVAVITSGGSTYFADSVKGRFTISRDNAKNTVYLQMNSLKPEVTAVYYCAKRYGYTAYGRPWRIGRTYDYWGQGTQVTVSS | low polyreactivity
QVQLVESGGGLVQAGGSLRLSCAASGSTIYLNAMGWYRQAPGKERELVAAIDYRGGSTYYADSVKGRFTISRDNAKNTVYLQMNSLKPEDTAVYYCNADYVYVHYQPGYYWGQGTQVTVSS | low polyreactivity
QVQLVESGGGLVQAGGSLRLSCAASGSTIYNYAMGWYRQATGKERELVAVISRSGGRTYYADSVKGRFTISRDNAKNTVYLQMNSLKPEDTAVYYCAADTYRGYDFDYWGQGTQVTVSS | high polyreactivity
QVQLVESGGGLVQAGGSLRLSCAASGSTIYPYAMGWYRQAPGKERELVAAISSGGRTYYADSVKGRFTISRDNAKNTVYLQMNSLKPEDTAVYYCAARVTKKYRRTYDYWGQGTQVTVSS | high polyreactivity
QVQLVESGGGLVQAGGSLRLSCAASGSTIYTYVMGWYRQAPGKERELVAAISWSGSSTYYADSVKGRFTISRDNAKNTVYLQMNSLKPEDTAVYYCNAQYRRGWWGVEYGYWGQGTQVTVSS | low polyreactivity
QVQLVESGGGLVQAGGSLRLSCAASGSTIYYNAMGWYRQAPGKERELVAAISKSSSRTYYADSVKGRFTISRDNAKYSVYLQMNSLKPEDTAVYYCAADAVYYHFDYWGQGTQVTVSS | high polyreactivity
QVQLVESGGGLVQAGGSLRLSCAASGSTIYYYALGWYRQAPGKERELVAAISWSGASTFYADSVKGRFTISRDNAKNTVDLKMNSLKPVDTAVYYCAAVIKGWGQGTQVTVSS | high polyreactivity
QVQLVESGGGLVQAGGSLRLSCAASGSTLAGYAMGWYRQAPGKERELVAAIDWTGGSTTYADSVKGRFTISRDNAKNTVYLQMNSLKPEDTAVYYCNVDLGVNGDYWGQGTQVTVSS | low polyreactivity
